Laboratory results as given in the supplement of paper PMC10567573.

B1: GNAI1 (parent)
chain: WIHCFEGVTAIIFCVALSDYDLVL
B2: PDS5B (parent)
chain: ITYPPGVKEISDKISKEEMVRRLK

Variants of: B1
Assay: protein stability index of a GFP-peptide fusion (GPS, HEK-293T) (PSI 1-6); higher = more stable
Details: c terminus: a fixed tail appended
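Note: lentivirally expressed fusions sorted by FACS into six bins by GFP to DsRed ratio, PSI derived from sequencing read proportions per bin multiplied by bin number.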

Protein stability index, by site and new letter:
L24: I 3.87 | K 3.06 | M 2.29 | N 4.75 | P 2.78 | Q 1.69 | R 3.04 | T 3.34 | V 2.12 | W 1.92

Variants of: B2
Assay: as above
Details: c terminus: a fixed tail appended

Protein stability index of substitutions, site by site:
I1: A 5.15 | C 4.63 | D 4.99 | E 4.74 | G 3.81 | H 5.04 | L 3.95 | M 4.9 | N 5.13 | P 4.78 | S 4.78 | T 4.96 | V 4.62 | W 4.64 | Y 3.78
T2: E 3.86 | G 4.08 | H 3.79 | I 2.83 | K 3.55 | L 4.14 | N 3.79 | P 3.47 | R 3.57 | S 3.72 | V 2.4 | W 3.45 | Y 3.37
Y3: A 4.48 | C 3.52 | E 4.47 | F 3.85 | H 4.43 | I 3.97 | K 4.64 | L 3.81 | Q 4.97 | R 4.96 | S 4.43 | T 3.14 | V 4.44 | W 2.8
P4: A 3.44 | C 2.81 | D 3.24 | H 3.91 | I 1.94 | K 3.61 | L 3.16 | M 3 | N 3.43 | Q 3.33 | R 3.43 | T 3.15 | V 2.97
P5: A 4.44 | C 3.62 | E 4.11 | F 3.79 | G 3.67 | H 3.67 | I 4.29 | K 3.74 | L 3.7 | N 4.01 | Q 4.17 | R 3.81 | S 4.45 | V 3.16 | W 3.15 | Y 2.12
G6: A 4.26 | C 2.19 | D 4.43 | E 5.04 | F 3.31 | H 4.18 | I 3.55 | K 4.57 | L 3.65 | M 3.33 | N 3.54 | Q 3.73 | R 4 | S 3.96 | T 4.31 | V 3.27 | W 3.3 | Y 2.88
V7: A 4.21 | C 4 | E 3.09 | G 4.01 | H 4.04 | I 4.43 | K 4.55 | L 3.67 | M 4.06 | N 4.24 | P 3.47 | Q 4.16 | R 4.5 | W 3.82 | Y 3.77
K8: A 4.5 | C 3.31 | E 3.78 | F 3.15 | I 3.12 | L 3.7 | M 3.46 | N 3.83 | P 3.69 | Q 4.29 | R 3.99 | T 4.57 | V 4.67 | W 3.09 | Y 3.21
E9: A 4.16 | C 3.13 | D 3.98 | F 2.97 | G 4.19 | H 3.43 | I 3.15 | K 3.66 | L 2.09 | M 3.51 | N 3.59 | P 2.75 | Q 3.35 | R 2.11 | S 3.81 | T 3.15 | W 2.24 | Y 2.79
I10: A 4.03 | D 4.88 | E 4.38 | F 4.31 | G 4.61 | H 3.62 | L 4.33 | N 4.68 | P 4.27 | Q 4.36 | R 3.74 | S 4.53 | V 4.62 | Y 4.44
S11: A 3.85 | C 3.94 | E 4.04 | F 3.3 | G 3.92 | H 4.04
